± gives the standard error.
B1: library; numbered along this chain (parent)
chain: MATDAALRRLLRLHRTEIAVAVDSAFPLLHALADHDVVPEDKFQETLHLKEKEGCPQAFHALLSWLLTQDSTAILDFWRVLFKDYNLERYGRLQPILDSFPKDVDLSQPRKGRKPPAVPKALVPPPRLPTKRKASEEARAAAPAALTPRGTASPGSQLKAKPPKKPESSAEQQRLPLGNGIQTMSASVQRAVAMSSGDVPGARGAVEGILIQQVFESGGSKKCIQVGGEFYTPSKFEDSGSGKNKARSSSGPKPLVRAKGAQGAAPGGGEARLGQQGSVPAPLALPSDPQLHQKNEDECAVCRDGGELICCDGCPRAFHLACLSPPLREIPSGTWRCSSCLQATVQEVQPRAEEPRPQEPPVETPLPPGLRSAGEEVRGPPGEPLAGMDTTLVYKHLPAPPSAAPLPGLDSSALHPLLCVGPEGQQNLAPGARCGVCGDGTDVLRCTHCAAAFHWRCHFPAGTSRPGTGLRCRSCSGDVTPAPVEGVLAPSPARLAPGPAKDDTASHEPALHRDDLESLLSEHTFDGILQWAIQSMARPAAPFPS

Variants of: B1
Test: AIRE transcriptional activation functional score (insulin promoter-GFP; nonsense median 0, synonymous median 1) (normalised score); higher = higher AIRE activity (more reporter activation)
Settings: with insulin promoter-GFP reporter in HEK293
Method: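 Deep mutational scan of full-length human AIRE (codon-optimized cDNA, DT-POPCode NNN libraries over three regions) integrated at a Bxb1 landing pad in HEK293 cells carrying an insulin core promoter-GFP reporter at a Flp-In site. Cells were sorted for the top 10% GFP about 14 days after transfection. Variant frequency log-ratios (select vs non-select, TileSeq) were rescaled so that the nonsense median is 0 and the synonymous median is 1, then averaged over biological replicates.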

Q: R113A was tested. Which “AIRE transcriptional activation functional score” value did it give?
A: The value was 0.951 ± 0.44.

Q: Which “AIRE transcriptional activation functional score” value does the source give for R113Y here?
A: Its value is 0.831 ± 0.23.

Q: With R336G as the variant, how does the “AIRE transcriptional activation functional score” value read?
A: Its value is 1.33 ± 0.33.

Q: Q275C was tested. Which “AIRE transcriptional activation functional score” value did it give?
A: Its value is 1.08 ± 0.075.

Q: For Q275I, which “AIRE transcriptional activation functional score” value is on record?
A: The value was 1.12 ± 0.15.

Q: For K120E, which “AIRE transcriptional activation functional score” value is on record?
A: Its value is 0.943 ± 0.27.

Q: With C299R as the variant, how does the “AIRE transcriptional activation functional score” value read?
A: The value was 0.523 ± 0.26.

Q: With C299F as the variant, how does the “AIRE transcriptional activation functional score” value read?
A: The value was 0.664 ± 0.29.

Q: For D4Q, which “AIRE transcriptional activation functional score” value is on record?
A: Its value is -3.53 ± 0.6.

Q: A138P was tested. Which “AIRE transcriptional activation functional score” value did it give?
A: The value was 0.857 ± 0.26.

Q: For V487R, which “AIRE transcriptional activation functional score” value is on record?
A: The value was 0.785 ± 0.2.

Q: V487K was tested. Which “AIRE transcriptional activation functional score” value did it give?
A: Its value is 0.821 ± 0.28.

Q: How did the “AIRE transcriptional activation functional score” value turn out when P381L was run?
A: The value was 1.13 ± 0.21.

Q: For P148Y, which “AIRE transcriptional activation functional score” value is on record?
A: Its value is 1.97 ± 0.079.

Q: Which “AIRE transcriptional activation functional score” value does the source give for P422R here?
A: Its value is 0.868 ± 0.23.

Q: For I211M, which “AIRE transcriptional activation functional score” value is on record?
A: Its value is 0.504 ± 0.89.

Q: With P27W as the variant, how does the “AIRE transcriptional activation functional score” value read?
A: Its value is 0.934 ± 0.087.

Q: Q57V was tested. Which “AIRE transcriptional activation functional score” value did it give?
A: The value was 0.739 ± 0.5.

Q: With R378M as the variant, how does the “AIRE transcriptional activation functional score” value read?
A: Its value is 0.0153 ± 0.2.

Q: With L406M as the variant, how does the “AIRE transcriptional activation functional score” value read?
A: The value was 1.3 ± 0.16.

Q: How did the “AIRE transcriptional activation functional score” value turn out when E207W was run?
A: Its value is -0.268 ± 0.039.

Q: How did the “AIRE transcriptional activation functional score” value turn out when H35W was run?
A: Its value is 0.553 ± 0.31.

Q: For H35F, which “AIRE transcriptional activation functional score” value is on record?
A: The value was 0.0268 ± 0.2.

Q: With E485H as the variant, how does the “AIRE transcriptional activation functional score” value read?
A: The value was 0.537 ± 0.11.

Q: For C314V, which “AIRE transcriptional activation functional score” value is on record?
A: Its value is 1.13 ± 0.15.

Q: C314L was tested. Which “AIRE transcriptional activation functional score” value did it give?
A: Its value is 0.847 ± 0.12.

Q: With L327S as the variant, how does the “AIRE transcriptional activation functional score” value read?
A: Its value is 1.14 ± 0.24.

Q: Which “AIRE transcriptional activation functional score” value does the source give for L327H here?
A: The value was -0.118 ± 0.56.

Q: Which “AIRE transcriptional activation functional score” value does the source give for P233I here?
A: The value was 0.184 ± 0.24.

Q: How did the “AIRE transcriptional activation functional score” value turn out when R471Q was run?
A: The value was 0.5 ± 0.21.

Q: For H14W, which “AIRE transcriptional activation functional score” value is on record?
A: Its value is 0.335 ± 0.094.

Q: G240P was tested. Which “AIRE transcriptional activation functional score” value did it give?
A: Its value is 0.78 ± 0.63.

Q: K131S was tested. Which “AIRE transcriptional activation functional score” value did it give?
A: The value was 0.0229 ± 0.23.

Q: With K131W as the variant, how does the “AIRE transcriptional activation functional score” value read?
A: The value was -0.218 ± 0.026.

Q: How did the “AIRE transcriptional activation functional score” value turn out when K131M was run?
A: The value was 0.154 ± 0.08.

Q: For H60A, which “AIRE transcriptional activation functional score” value is on record?
A: The value was -0.135 ± 0.21.

Q: Which “AIRE transcriptional activation functional score” value does the source give for H60R here?
A: Its value is 0.0862 ± 0.41.

Q: How did the “AIRE transcriptional activation functional score” value turn out when E363W was run?
A: The value was 1.59 ± 0.026.

Q: Which “AIRE transcriptional activation functional score” value does the source give for G374D here?
A: Its value is 0.16 ± 0.23.

Q: For G374A, which “AIRE transcriptional activation functional score” value is on record?
A: The value was 1.33 ± 0.14.

Q: With G180E as the variant, how does the “AIRE transcriptional activation functional score” value read?
A: Its value is 0.208 ± 0.15.

Q: F318I was tested. Which “AIRE transcriptional activation functional score” value did it give?
A: The value was 1.12 ± 0.31.

Q: With F318C as the variant, how does the “AIRE transcriptional activation functional score” value read?
A: Its value is 1.32 ± 0.22.

Q: For K42D, which “AIRE transcriptional activation functional score” value is on record?
A: Its value is -1.69 ± 0.68.

Q: How did the “AIRE transcriptional activation functional score” value turn out when I74T was run?
A: Its value is -0.246 ± 0.34.

Q: I74F was tested. Which “AIRE transcriptional activation functional score” value did it give?
A: The value was -0.0221 ± 0.088.

Q: Which “AIRE transcriptional activation functional score” value does the source give for L320Q here?
A: Its value is 0.88 ± 0.27.

Q: Which “AIRE transcriptional activation functional score” value does the source give for P398D here?
A: The value was 0.585 ± 0.029.

Q: R445N was tested. Which “AIRE transcriptional activation functional score” value did it give?
A: The value was 1.25 ± 0.17.

Q: With R445F as the variant, how does the “AIRE transcriptional activation functional score” value read?
A: The value was 0.192 ± 0.16.

Q: How did the “AIRE transcriptional activation functional score” value turn out when T468V was run?
A: Its value is 0.997 ± 0.24.

Q: For S220M, which “AIRE transcriptional activation functional score” value is on record?
A: Its value is 1.16 ± 0.036.

Q: How did the “AIRE transcriptional activation functional score” value turn out when D442A was run?
A: The value was 0.791 ± 0.17.

Q: How did the “AIRE transcriptional activation functional score” value turn out when R127Y was run?
A: The value was 0.503 ± 0.099.

Q: How did the “AIRE transcriptional activation functional score” value turn out when R127A was run?
A: Its value is 0.314 ± 0.39.

Q: Which “AIRE transcriptional activation functional score” value does the source give for R316T here?
A: Its value is 1.06 ± 0.43.

Q: G424P was tested. Which “AIRE transcriptional activation functional score” value did it give?
A: The value was 1.24 ± 0.072.

Q: With G424W as the variant, how does the “AIRE transcriptional activation functional score” value read?
A: Its value is 1.26 ± 0.04.

Q: How did the “AIRE transcriptional activation functional score” value turn out when L323H was run?
A: Its value is 0.721 ± 0.073.

Q: How did the “AIRE transcriptional activation functional score” value turn out when L323P was run?
A: The value was 1.33 ± 0.32.

Q: Which “AIRE transcriptional activation functional score” value does the source give for Q346A here?
A: Its value is 0.913 ± 0.36.

Q: Which “AIRE transcriptional activation functional score” value does the source give for L511M here?
A: Its value is 0.699 ± 0.14.

Q: A58K was tested. Which “AIRE transcriptional activation functional score” value did it give?
A: The value was -1.14 ± 0.57.

Q: A58Q was tested. Which “AIRE transcriptional activation functional score” value did it give?
A: The value was -0.509 ± 0.4.

Q: For A58Y, which “AIRE transcriptional activation functional score” value is on record?
A: The value was -0.204 ± 0.2.

Q: I18S was tested. Which “AIRE transcriptional activation functional score” value did it give?
A: Its value is 0.138 ± 0.48.

Q: P280L was tested. Which “AIRE transcriptional activation functional score” value did it give?
A: The value was 1.28 ± 0.27.

Q: With P280W as the variant, how does the “AIRE transcriptional activation functional score” value read?
A: Its value is -0.397 ± 0.28.

Q: With P280G as the variant, how does the “AIRE transcriptional activation functional score” value read?
A: Its value is 1.17 ± 0.45.

Q: For E88I, which “AIRE transcriptional activation functional score” value is on record?
A: Its value is 0.434 ± 0.27.

Q: How did the “AIRE transcriptional activation functional score” value turn out when E167G was run?
A: Its value is 1.02 ± 0.37.

Q: With K221Q as the variant, how does the “AIRE transcriptional activation functional score” value read?
A: The value was 0.621 ± 0.34.

Q: For K221R, which “AIRE transcriptional activation functional score” value is on record?
A: The value was 0.95 ± 0.12.

Q: For K221N, which “AIRE transcriptional activation functional score” value is on record?
A: The value was 0.995 ± 0.098.

Q: Which “AIRE transcriptional activation functional score” value does the source give for E508I here?
A: Its value is 0.786 ± 0.28.

Q: With D502G as the variant, how does the “AIRE transcriptional activation functional score” value read?
A: Its value is 1.04 ± 0.15.

Q: Which “AIRE transcriptional activation functional score” value does the source give for G498A here?
A: Its value is 1.09 ± 0.12.

Q: With R79M as the variant, how does the “AIRE transcriptional activation functional score” value read?
A: The value was -0.695 ± 0.077.

Q: Which “AIRE transcriptional activation functional score” value does the source give for A452L here?
A: The value was 0.666 ± 0.65.

Q: A452P was tested. Which “AIRE transcriptional activation functional score” value did it give?
A: Its value is 0.719 ± 0.14.

Q: How did the “AIRE transcriptional activation functional score” value turn out when C337T was run?
A: The value was 1.42 ± 0.093.

Q: Which “AIRE transcriptional activation functional score” value does the source give for C337V here?
A: The value was 1.13 ± 0.11.

Q: For Q212T, which “AIRE transcriptional activation functional score” value is on record?
A: Its value is 0.447 ± 0.065.

Q: With L66K as the variant, how does the “AIRE transcriptional activation functional score” value read?
A: Its value is -0.126 ± 0.13.

Reference: the supplement of paper PMC12667976
